Test results taken from patent US20160122431A1.

Biological target: murine B7-DC (murine) (UniProt Q9WUL5)
Assay: flow cytometry; murine bone marrow derived DC incubated with or without soluble PD-1.Ig, then stained with sHIgM12 (the competitor read out)

Chain of murine B7-DC (murine) (Q9WUL5 20-247): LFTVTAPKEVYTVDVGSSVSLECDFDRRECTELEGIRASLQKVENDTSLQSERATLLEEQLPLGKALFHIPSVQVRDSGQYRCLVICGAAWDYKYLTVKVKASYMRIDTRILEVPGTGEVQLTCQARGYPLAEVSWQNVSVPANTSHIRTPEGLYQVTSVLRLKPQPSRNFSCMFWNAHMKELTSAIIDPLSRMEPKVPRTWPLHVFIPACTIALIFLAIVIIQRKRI
Chain of PD-1.Ig fusion protein (Fc fusion) (Q02242 25-169): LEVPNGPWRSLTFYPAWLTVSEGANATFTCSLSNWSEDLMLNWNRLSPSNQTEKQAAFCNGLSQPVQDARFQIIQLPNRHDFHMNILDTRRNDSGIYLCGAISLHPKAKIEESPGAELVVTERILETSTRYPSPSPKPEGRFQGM

## PD-1.Ig fusion protein (Fc fusion)
  sHIgM12 staining left, percent of the level in the absence of PD-1: 50%
